Publication PMC5767185, “Arabidopsis G-Protein β Subunit AGB1 Interacts with BES1 to Regulate Brassinosteroid Signaling and Cell Elongation” (Frontiers in Plant Science, 2017)

Biological target: T1, His-AGB1 (Arabidopsis, UniProt P49177 1-377)
T1 construct: AGB1 of Arabidopsis, full length, cloned into pCOLD-TF; as the empty pCOLD-TF vector gives His-TF, the fusion probably carries trigger factor between the His tag and AGB1 (surmised); also called His-tagged AGB1; source: E. coli (Rosetta), pCOLD-TF, purified; not shown: His, N-terminal, kept
T1 sequence (looked up): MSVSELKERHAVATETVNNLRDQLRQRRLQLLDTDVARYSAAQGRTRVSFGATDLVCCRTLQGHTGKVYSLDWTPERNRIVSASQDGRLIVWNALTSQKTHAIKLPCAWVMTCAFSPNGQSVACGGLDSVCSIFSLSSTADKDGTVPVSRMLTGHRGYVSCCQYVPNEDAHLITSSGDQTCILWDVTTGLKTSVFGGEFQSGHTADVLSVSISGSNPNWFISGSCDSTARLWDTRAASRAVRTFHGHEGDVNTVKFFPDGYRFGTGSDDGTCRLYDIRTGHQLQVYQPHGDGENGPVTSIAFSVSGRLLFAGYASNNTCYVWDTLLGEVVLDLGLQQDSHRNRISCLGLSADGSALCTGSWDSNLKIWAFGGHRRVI
Assay: pull-down; GST-BES1 held on glutathione beads (MagneGST), His-AGB1 or His-TF added, lysis buffer without EDTA, 2 h at 4°C; prey detected with anti-His antibody
Conditions: both partners purified

B1: GST-BES1 (natural protein, Arabidopsis, UniProt Q9LN63 1-335, looked up)
chain: MTSDGATSTSAAAAAAAMATRRKPSWRERENNRRRERRRRAVAAKIYTGLRAQGNYNLPKHCDNNEVLKALCSEAGWVVEEDGTTYRKGHKPLPGDMAGSSSRATPYSSHNQSPLSSTFDSPILSYQVSPSSSSFPSPSRVGDPHNISTIFPFLRNGGIPSSLPPLRISNSAPVTPPVSSPTSRNPKPLPTWESFTKQSMSMAAKQSMTSLNYPFYAVSAPASPTHHRQFHAPATIPECDESDSSTVDSGHWISFQKFAQQQPFSASMVPTSPTFNLVKPAPQQLSPNTAAIQEIGQSSEFKFENSQVKPWEGERIHDVAMEDLELTLGNGKAHS
notes: BES1 of Arabidopsis, full length, cloned into pGEX-4T-1; also called GST-tagged BES1; source: E. coli (Rosetta), pGEX-4T-1, purified; not shown: GST, N-terminal, kept
B1: binds.
